These results are taken from PMC7497679, “Structure-based design, synthesis, and evaluation of the biological activity of novel phosphoroorganic small molecule IAP antagonists” (Investigational New Drugs, 2020).

The target in the experiment is X-linked inhibitor of apoptosis protein (XIAP) BIR3 domain (human). Briefly: fluorescence polarisation; competition: XIAP BIR3 (50 nM) added to the competitor (50 µM to 0.640 nM or to 0.0537 nM), 15 min at r.t., then probe 4 (2 nM), read 30 min later; phosphate buffer pH 7.5 with γ-globulin 100 µg/mL and NaN3 0.02%, final DMSO 1.4%.

Consider H-AVPW-OH [tetrapeptide H2N-Ala-Val-Pro-Trp-OH (3)], for which the EC50 (commonly the midpoint of the concentration-response curve) was 340 nM.
